Results on one molecule are retold here after US10942183B2, “Methods of detecting progesterone receptor and of detecting an expression level” (REGENTS OF THE UNIVERSITY OF MINNESOTA, priority 2017, dated 2021).

This assay concerns T47D cells. The assay can be described thus: Mammosphere formation in T47D cells. The settings on record: T47D cells, EGF 20 ng/ml, 14 days. Format: cell-based, human. As for the experimental part:
Primary Mammospheres: Adherent cells were washed with PBS and dissociated enzymatically in 0.25% trypsin-EDTA (Invitrogen Corporation, Carlsbad, Calif.). Cells were sieved through a 40-μm sieve (BD FALCON, BD Biosciences, Bedford, Mass.) and analyzed microscopically for single-cellularity. Single cells were plated in ultra-low attachment plates (Corning, Inc., Corning, N.Y.) and cultured in a humid incubator. Cells were grown in a serum-free mammary epithelial basal medium (MEBM; Lonza Group, Basel, Switzerland) containing 1% B27 Supplement (Invitrogen Corporation, Carlsbad, Calif.), 1% penicillin-streptomycin (Invitrogen Corporation, Carlsbad, Calif.), 5 μg/ml insulin (Invitrogen Corporation, Carlsbad, Calif.), 20 ng/ml EGF (Sigma-Aldrich, St. Louis, Mo.), 1 ng/ml hydrocortisone (Sigma-Aldrich, St. Louis, Mo.), and 100 μM β-mercaptoethanol. […] Mammosphere Forming Efficiency (MFE) % was calculated by the number of mammospheres per well/number of cells seeded per well.
Secondary Mammospheres: Primary mammospheres were collected by centrifugation (5 min, 1000 rpm), and dissociated enzymatically in 0.25% typsin-EDTA. Cells were sieved through a 40-μm tip strainer (Bel-Art SP Scienceware, South Wayne, N.J.) and analyzed microscopically for single-cellularity. […] Mammosphere Forming Efficiency (MFE) % was calculated by the number of mammospheres per well/number of cells seeded per well. […]

B1: EGF: growth factor in mammosphere culture media, 20 ng/ml (protein, UniProt P01133 23-1207, looked up)
Pro-epidermal growth factor: PQHWSCPEGTLAGNGNSTCVGPAPFLIFSHGNSIFRIDTEGTNYEQLVVDAGVSVIMDFHYNEKRIYWVDLERQLLQRVFLNGSRQERVCNIEKNVSGMAINWINEEVIWSNQQEGIITVTDMKGNNSHILLSALKYPANVAVDPVERFIFWSSEVAGSLYRADLDGVGVKALLETSEKITAVSLDVLDKRLFWIQYNREGSNSLICSCDYDGGSVHISKHPTQHNLFAMSLFGDRIFYSTWKMKTIWIANKHTGKDMVRINLHSSFVPLGELKVVHPLAQPKAEDDTWEPEQKLCKLRKGNCSSTVCGQDLQSHLCMCAEGYALSRDRKYCEDVNECAFWNHGCTLGCKNTPGSYYCTCPVGFVLLPDGKRCHQLVSCPRNVSECSHDCVLTSEGPLCFCPEGSVLERDGKTCSGCSSPDNGGCSQLCVPLSPVSWECDCFPGYDLQLDEKSCAASGPQPFLLFANSQDIRHMHFDGTDYGTLLSQQMGMVYALDHDPVENKIYFAHTALKWIERANMDGSQRERLIEEGVDVPEGLAVDWIGRRFYWTDRGKSLIGRSDLNGKRSKIITKENISQPRGIAVHPMAKRLFWTDTGINPRIESSSLQGLGRLVIASSDLIWPSGITIDFLTDKLYWCDAKQSVIEMANLDGSKRRRLTQNDVGHPFAVAVFEDYVWFSDWAMPSVMRVNKRTGKDRVRLQGSMLKPSSLVVVHPLAKPGADPCLYQNGGCEHICKKRLGTAWCSCREGFMKASDGKTCLALDGHQLLAGGEVDLKNQVTPLDILSKTRVSEDNITESQHMLVAEIMVSDQDDCAPVGCSMYARCISEGEDATCQCLKGFAGDGKLCSDIDECEMGVPVCPPASSKCINTEGGYVCRCSEGYQGDGIHCLDIDECQLGEHSCGENASCTNTEGGYTCMCAGRLSEPGLICPDSTPPPHLREDDHHYSVRNSDSECPLSHDGYCLHDGVCMYIEALDKYACNCVVGYIGERCQYRDLKWWELRHAGHGQQQKVIVVAVCVVVLVMLLLLSLWGAHYYRTQKLLSKNPKNPYEESSRDVRSRRPADTEDGMSSCPQPWFVVIKEHQDLKNGGQPVAGEDGQAADGSMQPTSWRQEPQLCGMGTEQGCWIPVSSDKGSCPQVMERSFHMPSYGTQTLEGGVEKPHSLLSANPLWQQRALDPPHQMELTQ
modifications: Pro-epidermal growth factor
notes: growth factor in mammosphere culture media, 20 ng/ml
In the case of B1, the “mammosphere formation on removal and add-back of EGF” value is recorded as “clear requirement for growth factor signaling”.
